Experimental data from article PMC3268005 (Journal of the American Chemical Society, 2011).

B1: Saccharomyces cerevisiae mitochondrial manganese superoxide dismutase (ScMnSOD) (enzyme, UniProt P00447 27-233, looked up)
chain: KVTLPDLKWDFGALEPYISGQINELHYTKHHQTYVNGFNTAVDQFQELSDLLAKEPSPANARKMIAIQQNIKFHGGGFTNHCLFWENLAPESQGGGEPPTGALAKAIDEQFGSLDELIKLTNTKLAGVQGSGWAFIVKNLSNGGKLDVVQTYNQDTVTGPLVPLVAIDAWEHAYYLQYQNKKADYFKAIWNVVNWKEASRRFDAGKI

Tests used:
[1] = target: Candida albicans cytosolic manganese superoxide dismutase (CaMnSODc) (Candida albicans); test: crystal structure
[2] = target: Candida albicans cytosolic manganese superoxide dismutase (CaMnSODc) (Candida albicans); test: SEC
[3] = target: Candida albicans cytosolic manganese superoxide dismutase (CaMnSODc) (Candida albicans); test: crystal structure; remark: listed apart in the source
[4] = target: the molecule itself; test: SEC

Row | Molecule | stoichiometry N [1] | stoichiometry N [2] | stoichiometry N [3] | stoichiometry N [4]
1 | Candida albicans cytosolic manganese superoxide dismutase (CaMnSODc) (enzyme) | 2 | 2 | 4 | 
2 | B1 |  |  |  | 4
